Literature values in PMC8316261.

Biological target: C5aR (Homo sapiens) (UniProt P21730)
UniProt P21730, sequence (P21730 whole entry): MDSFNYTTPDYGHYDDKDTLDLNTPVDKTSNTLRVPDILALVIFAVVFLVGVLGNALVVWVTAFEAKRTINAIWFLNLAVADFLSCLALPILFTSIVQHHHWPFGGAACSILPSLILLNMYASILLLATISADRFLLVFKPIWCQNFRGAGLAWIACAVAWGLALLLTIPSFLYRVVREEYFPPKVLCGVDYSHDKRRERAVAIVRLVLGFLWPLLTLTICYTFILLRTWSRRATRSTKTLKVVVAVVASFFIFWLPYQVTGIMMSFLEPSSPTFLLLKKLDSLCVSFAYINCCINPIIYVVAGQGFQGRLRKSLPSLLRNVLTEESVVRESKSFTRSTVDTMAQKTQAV

C5a C5a (from UniProt P01031)
Kd: 1 nM
